According to publication doi:10.1101/852715:

Molecular target: NSTTR, artificially mutated variant of TTR carrying the double mutation N99R/S100R
Experiment: SEC-MALS

“NSTTR, artificially mutated variant of TTR carrying the double mutation N99R/S100R (natural protein)” gave a stoichiometry N of 4.
